Results on one molecule are retold here after patent publication US8003854B2, “GRG32: a novel EPSP synthase gene conferring herbicide resistance” (Athenix Corp., priority 2006, dated 2011).

The assay concerns E. coli cells. Put plainly: Glyphosate screen: growth of pRSF1b clones on M63+ plates with glyphosate. It is filed as cell-based. The note with it: two days at 37° C. The protocol:
The pRSF1b clones were plated onto M63+ plates containing antibiotic and either 0 mM or 50 mM glyphosate. Growth was scored after two days growth at 37° C.

B1: GRG32: glyphosate-resistant EPSP synthase; predicted translation product of grg32 (SEQ ID NO:2), expressed from clone pAX1950 in pRSF1b (protein)
chain: MTASASWTARKGQPLQGSLTIPGDKSVSHRAVMFAALADGVSHIDGFLEGEDTRATAAIFSQMGVRIETPSPSQRIVHGVGVDGLQAPAGPLDCGNAGTGMRLLAGLLAAQPFDAVMVGDESLSRRPMRRVTGPLAQMGAKIDTEADGTPPLRVHGGQPLHGIDFASPVASAQVKSAVLLAGLYAQGETSVTEPHPTRDYSERMLRAFGVEIEFSPGKARLRGGQRLRATDIAVPADFSSAAFFLVAASIIPGSALTLRQVGLNPRRTGLLAALRLMGADIREENHAEQGGEAVADLVVRHAPLHGAEIPEALVPDMIDEFPALFVAAAAAQGNTIVRGAAELRVKESDRLAAMATGLRSLGVQVDETEDGATIHGGHELGSGTIESHGDHRIAMAFAIAGQLSSGEVRINDIANVATSFPNFDGIARTAGFNLG
modifications: Isolated from soil sample
In the case of B1, the “resistance to 50 mM glyphosate in E. coli cells” value was “confer resistance”.
